B1: mRNA-splicing (parent)
chain: AGUUGCUGCUGGGAGCUCCAGCACAGUGAAAUGGACAGAAGGGCAGAGCAA

Variants of: B1
Assay: exon inclusion enrichment index; higher = more inclusion; WT1 exon 5 minigene, HEK293
With AGUUAUCUAUGGGAGCUCCAGCACAGUGAAAUGGACAGAAGGGCAGAGCAA the “exon inclusion enrichment index” value was 0.249. In the case of AGUUGACGACGACAGCUCCAGCACAGUGAAAUGGACAGAAGGGCAGAGCAA, the “exon inclusion enrichment index” value is reported as 2.54. For AGUUGACGACGGGAGCUCCAGCACAGUGAAAUGGUUAGAAGGGCAGAGCAA, the “exon inclusion enrichment index” value was 0.135. For AGUUGCUGCUGGGAGCUCCAGCAUCGUGAAAUGGACAGAAGGGCAGAGCAA, the “exon inclusion enrichment index” value was 1.23. With AGUUAGGGAUGGGAGCUCUAGCACAGUGAAAUGGACAGAAGGGCAGAGCAA the “exon inclusion enrichment index” value was 0.00126. In the case of AGUUCGCGCCGGGAGCUCCAGUCCAGUGAAAUGGACAGAAGGGCAGAGCAA, the “exon inclusion enrichment index” value is reported as 2.02. For AGUUAUAUAUGGGAGCUCCAGCACAGUGAAAUGGACAGAAGGCGAGAGCAA, the “exon inclusion enrichment index” value was 1.01. In the case of AGUUGAAGAAGGGAGCUCCAGCACAGUAUAAUGGACAGAAGGGCAGAGCAA, the “exon inclusion enrichment index” value is reported as 0.156. With AGUUGAAGAAGGGAGCUCCAGCACAGUGAAAUGGACAGAGAGGCAGAGCAA the “exon inclusion enrichment index” value was 0.23. With AGUUCACACAGGGAGCUCCAGCACAGUGAUCUGGACAGAAGGGCAGAGCAA the “exon inclusion enrichment index” value was 0.143. With AGUUACCACCGGGAGCUCCAGCACAGUGAAAUGUCCAGAAGGGCAGAGCAA the “exon inclusion enrichment index” value was 0.726. With AGUUCACACAGGGAGCUCCAGCACAGUGAAAUGGACAGAAGGGGUGAGCAA the “exon inclusion enrichment index” value was 0.109. With AGUUGCUGCUGGGAGCUCCAGCACAGUGAAAUGGACAGCUGGGCAGAGCAA the “exon inclusion enrichment index” value was 0.0469. In the case of AGUUCACAGAGGGAGCUCCAGCACAGUGAAAUGGACAGAAGGGCAGAGCAA, the “exon inclusion enrichment index” value is reported as 0.545. With AGUUACCACCGGGAGUUCCAGCACAGUGAAAUGGACAGAAGGGCAGAGCAA the “exon inclusion enrichment index” value was 2.53. In the case of AGUUUCUUUUGGGAGCUCCAGCACAAGGAAAUGGACAGAAGGGCAGAGCAA, the “exon inclusion enrichment index” value is reported as 0.338. In the case of AGUUCUUCUCGGGAGACCCAGCACAGUGAAAUGGACAGAAGGGCAGAGCAA, the “exon inclusion enrichment index” value is reported as 1.6. For AGUUGAAGAAGGGAGCUCCAGCACAGUGAAAUGGGAAGAAGGGCAGAGCAA, the “exon inclusion enrichment index” value was 0.281. For AGUUGACGACGGGAGCUCCAGCGCAGUGAAAUGGACAGAAGGGCAGAGCAA, the “exon inclusion enrichment index” value was 4.36. With AGUUGCUGCUGGGAGCUCCAGCACAGUGAAAUGGACAGAAGGGAGGAGCAA the “exon inclusion enrichment index” value was 0.233. With AGUUGAAGAAGGGAGCUCCAGCACAGUGAAAUGGACAGAAGGGCGAAGCAA the “exon inclusion enrichment index” value was 2.3. For AGUUUCUUUUGGGAGCUCCAGCACAGUGAAAUGGACAGAAUAGCAGAGCAA, the “exon inclusion enrichment index” value was 0.0453. With AGUUCGCGCCGGGAGCUCCAGCACAGCUAAAUGGACAGAAGGGCAGAGCAA the “exon inclusion enrichment index” value was 2.8. With AGUUUCUUUUGGGAGCUCCAGGACAGUGAAAUGGACAGAAGGGCAGAGCAA the “exon inclusion enrichment index” value was 0.183. In the case of AGUUGACGACGGGAGCUGGAGCACAGUGAAAUGGACAGAAGGGCAGAGCAA, the “exon inclusion enrichment index” value is reported as 3.85. With AGUUCACACAGGGAGCUCCACUACAGUGAAAUGGACAGAAGGGCAGAGCAA the “exon inclusion enrichment index” value was 0.105. For AGUUCUUCUCGGGAGCUCCAGCACAGUGAAAUGGACAGAAGGGCUGAGCAA, the “exon inclusion enrichment index” value was 2.45. For AGUUAGGGAUGGGAGCUCCAGCACAGUGAAAUGGAACGAAGGGCAGAGCAA, the “exon inclusion enrichment index” value was 0.00188. In the case of AGUUUCUUUUGGGAGCUCCAGCACAGUGAAAUGGACAUCAGGGCAGAGCAA, the “exon inclusion enrichment index” value is reported as 0.088. In the case of AUUUACCACCGGGAGCUCCAGCACAGUGAAAUGGACAGAAGGGCAGAGCAA, the “exon inclusion enrichment index” value is reported as 3.56. With AGUUCUUCUCGGGAGCUCCAGCACAGUGAAAUGGACAGACAGGCAGAGCAA the “exon inclusion enrichment index” value was 0.768. With AGUUGACGACGGGAGCUCCAGCACAGUGAAAUGAUCAGAAGGGCAGAGCAA the “exon inclusion enrichment index” value was 1.68. In the case of AGUCGACACAGGGAGCUCCAGCACAGUGAAAUGGACAGAAGGGCAGAGCAA, the “exon inclusion enrichment index” value is reported as 1.12. With AGUUUCUUUUGGGAGCUCCAUUACAGUGAAAUGGACAGAAGGGCAGAGCAA the “exon inclusion enrichment index” value was 0.0182. For AGUUGACGACGGGAGCUCCAGCACAGUGAAAAAGACAGAAGGGCAGAGCAA, the “exon inclusion enrichment index” value was 2.07. In the case of AGUUGACGACGGGAGCUCCAGCACAGUGAAAUGGACAGAUGGGCAGAGCAA, the “exon inclusion enrichment index” value is reported as 2.61. For AGUUGAAGAAGGGAGCUAAAGCACAGUGAAAUGGACAGAAGGGCAGAGCAA, the “exon inclusion enrichment index” value was 0.0959. In the case of AGUUGAAGAAGGGAGCUAUAGCACAGUGAAAUGGACAGAAGGGCAGAGCAA, the “exon inclusion enrichment index” value is reported as 0.0166. For AAGUAGGGAUGGGAGCUCCAGCACAGUGAAAUGGACAGAAGGGCAGAGCAA, the “exon inclusion enrichment index” value was 0.00228. In the case of AGUUGCUGCUGGGAGCUCCUGCACAGUGAAAUGGACAGAAGGGCAGAGCAA, the “exon inclusion enrichment index” value is reported as 2.62. For AGUUACCACCGGGAGCUCCAGCACAGUGAAAUGAGCAGAAGGGCAGAGCAA, the “exon inclusion enrichment index” value was 1.09. With AGUUAUAUAUGGGAGCUCCAGCACAGUGAAAUGGACAGAAGCCCAGAGCAA the “exon inclusion enrichment index” value was 0.451. With AGUUAUAUAUGGGAGUACCAGCACAGUGAAAUGGACAGAAGGGCAGAGCAA the “exon inclusion enrichment index” value was 0.0252. With AGUUUCUUUUGGGAGCUCCAGCACAGUGAAAUGUUCAGAAGGGCAGAGCAA the “exon inclusion enrichment index” value was 0.0186. For AGUUGUGGACGGGAGCUCCAGCACAGUGAAAUGGACAGAAGGGCAGAGCAA, the “exon inclusion enrichment index” value was 1.45. For AGUUGCAGCUGGGAGCUCCAGCACAGUGAAAUGGACAGAAGGGCAGAGCAA, the “exon inclusion enrichment index” value was 0.394. In the case of AGUUAACGCCGGGAGCUCCAGCACAGUGAAAUGGACAGAAGGGCAGAGCAA, the “exon inclusion enrichment index” value is reported as 2.4. With AGUUUCUUUUGGGAGCUCCAGCACAGUGAAAUUGACAGAAGGGCAGAGCAA the “exon inclusion enrichment index” value was 0.0674. For AGUUAUAUAUGGGAGCUCCGCCACAGUGAAAUGGACAGAAGGGCAGAGCAA, the “exon inclusion enrichment index” value was 0.11. For AGUUGCUGCUGGGAGCUCCAGCACAGUGAAAUGGACAGAAGGGCAGCCCAA, the “exon inclusion enrichment index” value was 0.171. With AGUUACCACCGGGAGCUCCAGCACAGUGAAAUGGACGAAAGGGCAGAGCAA the “exon inclusion enrichment index” value was 2.19.
